We go through 14 molecules from patent US20230357429A1 (JANUX THERAPEUTICS, published 2023).

One assay concerns the target T1, TBD-1 wt.
T1 construct: Fab; the heavy chain entry is VH-CH1; also called wild-type anti-TROP2 Fab (hRS7); TROP2 Fab
As to the kind of experiment: competition ELISA: peptide titrated and pre-incubated with a constant concentration of TBD-1, then added to plate-bound biotinylated TROP2; blocked ligand TROP2 (2.m7). (ELISA stands for enzyme-linked immunosorbent assay.)

Assay [1] deals with T2, Human TROP2 ECD (31-274 AA), biotinylated (human, UniProt P09758 31-274, biotinylated (site not stated)).
T2 construct: also called tumor-associated calcium signal transducer 2; Human TROP2-biotin
T2 sequence: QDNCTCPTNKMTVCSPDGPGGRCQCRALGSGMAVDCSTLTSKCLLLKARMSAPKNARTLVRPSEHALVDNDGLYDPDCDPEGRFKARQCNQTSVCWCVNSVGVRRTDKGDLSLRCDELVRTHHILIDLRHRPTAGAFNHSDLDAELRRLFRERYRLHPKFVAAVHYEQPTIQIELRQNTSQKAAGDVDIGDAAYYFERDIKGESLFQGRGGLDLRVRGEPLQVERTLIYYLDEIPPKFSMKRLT
As to the kind of experiment: ELISA on immobilized TROP2.

Assay [2] deals with T2, Human TROP2 ECD (31-274 AA), …. As to the kind of experiment: ELISA on immobilized TROP2. This is another data set of the same source.
For the next assay, the target named is T3, Cyno TROP2 Full length (cynomolgus monkey, UniProt P09758 31-323 (human entry)).
T3 chain: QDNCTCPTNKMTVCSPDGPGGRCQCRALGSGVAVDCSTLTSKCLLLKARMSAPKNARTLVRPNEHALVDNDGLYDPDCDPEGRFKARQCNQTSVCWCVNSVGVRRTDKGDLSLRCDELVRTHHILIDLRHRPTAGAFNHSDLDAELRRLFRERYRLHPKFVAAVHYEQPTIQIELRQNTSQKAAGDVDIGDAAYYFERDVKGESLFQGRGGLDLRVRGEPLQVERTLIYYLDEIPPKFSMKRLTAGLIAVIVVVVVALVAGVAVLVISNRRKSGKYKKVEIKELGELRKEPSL
As to the kind of experiment: cell-based or functional assay.

Another assay deals with T4, Human TROP2 Full length (human, UniProt P09758 31-323).
T4 sequence: T3 chain with V32M, N63S, V200I, V262M, S268T
As to the kind of experiment: cell-based or functional assay.

Assay [3] concerns the target T2, Human TROP2 ECD (31-274 AA), …. Nature of the assay: ELISA on immobilized TROP2. The source holds these as a separate data set.
For assay [4] the target is unchanged. Nature of the assay: ELISA on immobilized TROP2. The source holds these as a separate data set.
The target is the same in assay [5]. As to the kind of experiment: ELISA on immobilized TROP2. The source holds these as a separate data set.
Assay [6] shares this target. Nature of the assay: ELISA on immobilized TROP2. The source holds these as a separate data set.
The target is the same in assay [7]. As to the kind of experiment: ELISA on immobilized TROP2. This is another data set of the same source.
Assay [8] addresses T5, CD3 (biotinylated CD3 antigen) (human, UniProt P07766 23-126, limits assumed, biotinylated (site not stated)).
T5 construct: also called CD3ε; human CD3
As to the kind of experiment: ELISA: biotinylated CD3 captured on neutravidin plates, TCE titrated, HRP secondary antibody.

Assay [9] has as its target T6, TCE-37 (anti-CD3 scFv F104A; anti-TROP2 F108A).
T6 construct: scFv on the Fab heavy chain
Nature of the assay: competition ELISA, TCE on captured CD3.

Assay [10] deals with T2, Human TROP2 ECD (31-274 AA), …. Nature of the assay: ELISA on immobilized TROP2. The source holds these as a separate data set.

Changes are numbered by the printed parent chain. Numbers in names are those of the source. Like-named read-outs stand apart in the source and are kept apart here. Where no end group is shown, it is not given here.

For LDFCKLYQWPVCFT [Peptide-15], the binding result with TBD-1 wt is “binds”.

B1: PC-2 (bispecific antibody)
light: GGIDFCMLYNWPICAGGGGGSSGGSAAGLLAPPGGLSGRSDAGGGGSDIQLTQSPSSLSASVGDRVSITCKASQDVSIAVAWYQQKPGKAPKLLIYSASYRYTGVPDRFSGSGSGTDFTLTISSLQPEDFAVYYCQQHYITPLTFGAGTKVEIKRTVAAPSVFIFPPSDEQLKSGTASVVCLLNNFYPREAKVQWKVDNALQSGNSQESVTEQDSKDSTYSLSSTLTLSKADYEKHKVYACEVTHQGLSSPVTKSFNRGEC
heavy: not shown
notes: anti-TROP2 wt
On to B1, for which the EC50 (usually the concentration giving half of the maximal effect) in assay [1] stood at 78.5 nM.

B2: PC-3 (bispecific antibody)
light: B1 light with I3V, M7K, L8I, N10S, I13V, A15H, G16Q
heavy: not shown
notes: anti-TROP2 wt
Molecule B2 showed a concentration for a half-maximal effect (EC50) in [1] of 64.6 nM.

B3: PC-17 (bispecific antibody)
light: not shown
heavy: GGIDFCAIYQWPVCRSGGGGSGGLSGRSDAGSPLGLAGSGGSQVQLQQSGSELKKPGASVKVSCKASGYTFTNYGMNWVKQAPGQGLKWMGWINTYTGEPTYTDDFKGRFAFSLDTSVSTAYLQISSLKADDTAVYFCARGGFGSSYWYFAVWGQGSLVTVSSASTKGPSVFPLAPSSKSTSGGTAALGCLVKDYFPEPVTVSWNSGALTSGVHTFPAVLQSSGLYSLSSVVTVPSSSLGTQTYICNVNHKPSNTKVDKKVEPKSC
notes: anti-TROP2 D109A
The molecule B3 displayed an EC50 in assay [2] of 926 nM. In the case of VDFCALYNWPVCET [Peptide-11], the binding result with TBD-1 wt is recorded as “binds”.

B4: PC-8 (bispecific antibody)
light: GGVDFCGLYHWPICYQGGGGSGGLSGRSDAGSPLGLAGSGGSDIQLTQSPSSLSASVGDRVSITCKASQDVSIAVAWYQQKPGKAPKLLIYSASYRYTGVPDRFSGSGSGTDFTLTISSLQPEDFAVYYCQQHYITPLTFGAGTKVEIKRTVAAPSVFIFPPSDEQLKSGTASVVCLLNNFYPREAKVQWKVDNALQSGNSQESVTEQDSKDSTYSLSSTLTLSKADYEKHKVYACEVTHQGLSSPVTKSFNRGEC
heavy: not shown
notes: Masked polypeptide complex: anti-TROP2 D109A, anti-CD3 wt
Consider B4, for which the “CyTROP2 HEK293 EC50 (pM)” value in the assay with Cyno TROP2 Full length stood at 3450 pM. The “H292 Cytotoxicity EC50 (pM)” value in the assay with Human TROP2 Full length was determined as 14600 pM. Also, the “HCT116 Cytotoxicity EC50 (pM)” value with Human TROP2 Full length is greater than 100000 pM. Besides, the 50% effective concentration (EC50) in [3] worked out at 187 nM; in [4], 165 nM; in assay [5], 86 nM.

B5: PC-30 (bispecific antibody)
light: B4 light
heavy: not shown
notes: anti-TROP2 D109A
In turn, B5 displayed an EC50 in [4] of 151 nM.

B6: TCE-1 (TROP2 T cell engager, anti-CD3 scFv wt, anti-TROP2 wt) (bispecific antibody)
light: DIQLTQSPSSLSASVGDRVSITCKASQDVSIAVAWYQQKPGKAPKLLIYSASYRYTGVPDRFSGSGSGTDFTLTISSLQPEDFAVYYCQQHYITPLTFGAGTKVEIKRTVAAPSVFIFPPSDEQLKSGTASVVCLLNNFYPREAKVQWKVDNALQSGNSQESVTEQDSKDSTYSLSSTLTLSKADYEKHKVYACEVTHQGLSSPVTKSFNRGEC
heavy: not shown
notes: Anti-CD3 scFv joined to the N-terminus of the anti-TROP2 Fab heavy chain; the heavy entry holds scFv, linker and Fab heavy chain; also called TCE-1 (wt)
In the case of B6, the EC50 in assay [6] was 0.07 nM; in assay [7] it was 0.06 nM; in assay [2], 1.29 nM.

B7: TCE-35 (anti-CD3 scFv N30Q, I109V, G172A, V231A; anti-TROP2 wt) (bispecific antibody)
light: B6 light
heavy: not shown
notes: scFv on the Fab heavy chain
Molecule B7 had a concentration for a half-maximal effect (EC50) in assay [8] of 0.171 nM.

B8: TCE-8 (anti-CD3 scFv wt; anti-TROP2 D109A) (bispecific antibody)
light: B6 light
heavy: not shown
notes: scFv on the Fab heavy chain
As to B8, the EC50 in [3] came out at 0.57 nM; in assay [4], 0.16 nM; in [5] it was 0.2 nM.

For the molecule YLCGPDTDETLACY (cysteine pairing not given here; also: biotinylated, site not given here, mask peptide for the CD3 scFv) [Peptide-77], the IC50 (as a rule, the concentration that gives 50% inhibition) in assay [9] was 8870 nM.

B9: TCE-5 (bispecific antibody)
light: not shown
heavy: QVQLQQSGSELKKPGASVKVSCKASGYTFTNYGMNWVKQAPGQGLKWMGWINTYTGEPTYTDDFKGRFAFSLDTSVSTAYLQISSLKADDTAVYFCARGGFGSSYWYFAVWGQGSLVTVSSASTKGPSVFPLAPSSKSTSGGTAALGCLVKDYFPEPVTVSWNSGALTSGVHTFPAVLQSSGLYSLSSVVTVPSSSLGTQTYICNVNHKPSNTKVDKKVEPKSC
With B9, the EC50 is 20.9 nM in assay [2], 1.43 nM in assay [3] and 0.59 nM in assay [10].

B10: PC-4 (bispecific antibody)
light: not shown
heavy: GGIDFCMLYNWPICAGGGGGSSGGSAAGLLAPPGGLSGRSDAGGGGSQVQLQQSGSELKKPGASVKVSCKASGYTFTNYGMNWVKQAPGQGLKWMGWINTYTGEPTYTDDFKGRFAFSLDTSVSTAYLQISSLKADDTAVYFCARGGFGSSYWYFDVWGQGSLVTVSSASTKGPSVFPLAPSSKSTSGGTAALGCLVKDYFPEPVTVSWNSGALTSGVHTFPAVLQSSGLYSLSSVVTVPSSSLGTQTYICNVNHKPSNTKVDKKVEPKSC
notes: anti-TROP2 wt
The molecule B10 gave an EC50 in assay [1] of 32.8 nM. Take VDFCYLYNWPVCSK [Peptide-9]: in the assay with TBD-1 wt, the binding result is “binds”.
